Tested on: Escherichia coli TOP10
Experiment: shrunken log2 fold change of peptide-encoding DNA abundance (4.5 h post-induction vs induction); higher = less antimicrobial activity (less host growth inhibition)
Conditions: time post-induction: 4.5 h; library: site-saturation at positions 5, 18, 19, 20
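Also: peptides expressed intracellularly from a pBAD plasmid library in pooled LB shake-flask culture, induced with 0.3% L-arabinose, DNA abundance read by NGS, three biological replicates, DESeq2 with apeglm shrinkage.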

RRIRDRPPRLPRPRPRPSWQPRP
shrunken log2 fold change: 0.321

RRIRARPPRLPRPRPRPEWMPRP
shrunken log2 fold change: 0.252

RRIRARPPRLPRPRPRPRPAPRP
shrunken log2 fold change: 0.76

RRIRCRPPRLPRPRPRPPPHPRP
shrunken log2 fold change: 1.3

RRIRPRPPRLPRPRPRPEHNPRP
shrunken log2 fold change: -0.169

RRIRRRPPRLPRPRPRPLHVPRP
shrunken log2 fold change: -0.125

RRIRPRPPRLPRPRPRPLFRPRP
shrunken log2 fold change: 0.159

RRIRMRPPRLPRPRPRPGNSPRP
shrunken log2 fold change: -0.616

RRIRLRPPRLPRPRPRPSITPRP
shrunken log2 fold change: -0.436

RRIRTRPPRLPRPRPRPYLHPRP
shrunken log2 fold change: -0.367

RRIRERPPRLPRPRPRPALYPRP
shrunken log2 fold change: -0.129

RRIRTRPPRLPRPRPRPMQGPRP
shrunken log2 fold change: 0.321

RRIRERPPRLPRPRPRPPVEPRP
shrunken log2 fold change: 0.268

RRIRNRPPRLPRPRPRPIPFPRP
shrunken log2 fold change: -0.0196

RRIRARPPRLPRPRPRPGLNPRP
shrunken log2 fold change: 0.196

RRIRQRPPRLPRPRPRPSKYPRP
shrunken log2 fold change: -0.0779

RRIRGRPPRLPRPRPRPLSNPRP
shrunken log2 fold change: 0.416

RRIRYRPPRLPRPRPRPYMFPRP
shrunken log2 fold change: -0.651

RRIRIRPPRLPRPRPRPDCKPRP
shrunken log2 fold change: -0.477

RRIRFRPPRLPRPRPRPQHWPRP
shrunken log2 fold change: 0.0645

RRIRRRPPRLPRPRPRPDRCPRP
shrunken log2 fold change: 0.00426

RRIRMRPPRLPRPRPRPRQWPRP
shrunken log2 fold change: 0.0789

RRIRGRPPRLPRPRPRPRWIPRP
shrunken log2 fold change: 0.152

RRIRRRPPRLPRPRPRPFKDPRP
shrunken log2 fold change: -0.11

RRIRRRPPRLPRPRPRPHFWPRP
shrunken log2 fold change: 0.51

RRIRPRPPRLPRPRPRPSWMPRP
shrunken log2 fold change: -0.288

RRIRMRPPRLPRPRPRPKCNPRP
shrunken log2 fold change: 0.159

RRIRIRPPRLPRPRPRPTWCPRP
shrunken log2 fold change: 0.0363

RRIRYRPPRLPRPRPRPRYYPRP
shrunken log2 fold change: -2.49

RRIRDRPPRLPRPRPRPKTLPRP
shrunken log2 fold change: -0.21

RRIRTRPPRLPRPRPRPPVMPRP
shrunken log2 fold change: -0.113

RRIRDRPPRLPRPRPRPLLWPRP
shrunken log2 fold change: 0.754

RRIRYRPPRLPRPRPRPGMSPRP
shrunken log2 fold change: -0.137

RRIRGRPPRLPRPRPRPPLWPRP
shrunken log2 fold change: 1.09

RRIRTRPPRLPRPRPRPEIDPRP
shrunken log2 fold change: 0.0426

RRIRKRPPRLPRPRPRPRGGPRP
shrunken log2 fold change: 0.848

RRIRNRPPRLPRPRPRPAWFPRP
shrunken log2 fold change: 0.294

RRIRSRPPRLPRPRPRPNYAPRP
shrunken log2 fold change: -0.327

RRIRLRPPRLPRPRPRPQEMPRP
shrunken log2 fold change: -0.0408

RRIRKRPPRLPRPRPRPLKEPRP
shrunken log2 fold change: 0.0921

RRIRTRPPRLPRPRPRPDNIPRP
shrunken log2 fold change: -0.38

RRIRLRPPRLPRPRPRPQFAPRP
shrunken log2 fold change: 0.0774

RRIRPRPPRLPRPRPRPNWCPRP
shrunken log2 fold change: 0.0235

RRIRVRPPRLPRPRPRPILDPRP
shrunken log2 fold change: -0.224

RRIRPRPPRLPRPRPRPMWQPRP
shrunken log2 fold change: 0.0423

RRIRWRPPRLPRPRPRPYGWPRP
shrunken log2 fold change: -0.0271

RRIRKRPPRLPRPRPRPMVQPRP
shrunken log2 fold change: 0.208

RRIRRRPPRLPRPRPRPDCHPRP
shrunken log2 fold change: 0.619

RRIRYRPPRLPRPRPRPYPEPRP
shrunken log2 fold change: -0.173

RRIRYRPPRLPRPRPRPHYEPRP
shrunken log2 fold change: -1.49
